Source: paper PMC6158738

T1: PfuHAN-D4 (Pyrococcus furiosus, UniProt Q8U3Q7 112-740)
T1 sequence: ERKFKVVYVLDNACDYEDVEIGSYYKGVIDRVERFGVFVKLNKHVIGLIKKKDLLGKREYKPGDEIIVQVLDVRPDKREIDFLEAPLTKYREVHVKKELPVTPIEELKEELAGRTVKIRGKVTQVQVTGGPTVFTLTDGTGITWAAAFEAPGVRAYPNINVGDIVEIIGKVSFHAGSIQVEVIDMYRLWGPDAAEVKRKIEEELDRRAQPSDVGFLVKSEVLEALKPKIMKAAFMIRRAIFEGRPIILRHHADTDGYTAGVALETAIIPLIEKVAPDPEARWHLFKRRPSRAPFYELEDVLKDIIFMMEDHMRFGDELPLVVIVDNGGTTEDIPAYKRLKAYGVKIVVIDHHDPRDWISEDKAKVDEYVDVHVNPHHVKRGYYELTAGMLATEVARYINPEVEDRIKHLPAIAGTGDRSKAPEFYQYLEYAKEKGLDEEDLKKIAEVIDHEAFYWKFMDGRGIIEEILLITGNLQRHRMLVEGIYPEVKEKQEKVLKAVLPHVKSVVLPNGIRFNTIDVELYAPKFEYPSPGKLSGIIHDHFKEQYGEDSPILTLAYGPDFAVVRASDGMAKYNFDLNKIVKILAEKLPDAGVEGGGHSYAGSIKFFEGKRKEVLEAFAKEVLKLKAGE

T2: PfuHAN-D2 (Pyrococcus furiosus, UniProt Q8U3Q7 227-740)
T2 sequence: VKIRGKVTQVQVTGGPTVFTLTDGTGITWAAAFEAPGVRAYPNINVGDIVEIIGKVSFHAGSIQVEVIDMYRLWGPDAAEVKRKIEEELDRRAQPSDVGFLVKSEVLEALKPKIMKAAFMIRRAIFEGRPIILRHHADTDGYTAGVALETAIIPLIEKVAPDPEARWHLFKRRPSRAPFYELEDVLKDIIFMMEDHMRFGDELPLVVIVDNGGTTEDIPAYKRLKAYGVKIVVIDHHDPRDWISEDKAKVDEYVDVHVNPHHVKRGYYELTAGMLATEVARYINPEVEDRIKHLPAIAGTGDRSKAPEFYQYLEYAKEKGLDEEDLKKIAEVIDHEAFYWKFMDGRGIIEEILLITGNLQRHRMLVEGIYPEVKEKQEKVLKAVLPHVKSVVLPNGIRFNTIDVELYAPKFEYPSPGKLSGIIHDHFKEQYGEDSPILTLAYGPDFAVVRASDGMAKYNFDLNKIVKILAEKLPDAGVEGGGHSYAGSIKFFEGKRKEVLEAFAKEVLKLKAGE

T3: PfuHAN-D3 (Pyrococcus furiosus, UniProt Q8U3Q7 201-740)
T3 sequence: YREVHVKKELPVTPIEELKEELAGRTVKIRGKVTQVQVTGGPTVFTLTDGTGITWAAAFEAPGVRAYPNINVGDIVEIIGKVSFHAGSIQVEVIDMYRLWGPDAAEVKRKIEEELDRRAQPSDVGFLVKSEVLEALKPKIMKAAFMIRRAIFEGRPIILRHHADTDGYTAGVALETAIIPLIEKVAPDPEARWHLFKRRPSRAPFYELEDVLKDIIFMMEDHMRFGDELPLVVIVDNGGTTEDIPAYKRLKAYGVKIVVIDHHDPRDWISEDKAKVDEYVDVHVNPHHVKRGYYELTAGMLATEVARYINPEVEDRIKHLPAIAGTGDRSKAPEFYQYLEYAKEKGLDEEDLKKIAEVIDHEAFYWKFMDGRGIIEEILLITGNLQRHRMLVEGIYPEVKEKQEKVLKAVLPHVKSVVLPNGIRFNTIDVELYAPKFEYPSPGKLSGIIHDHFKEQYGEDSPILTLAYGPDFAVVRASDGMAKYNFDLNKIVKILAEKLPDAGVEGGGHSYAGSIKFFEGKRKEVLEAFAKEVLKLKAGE

T4: PfuHAN-D5 (Pyrococcus furiosus, UniProt Q8U3Q7 50-740)
T4 sequence: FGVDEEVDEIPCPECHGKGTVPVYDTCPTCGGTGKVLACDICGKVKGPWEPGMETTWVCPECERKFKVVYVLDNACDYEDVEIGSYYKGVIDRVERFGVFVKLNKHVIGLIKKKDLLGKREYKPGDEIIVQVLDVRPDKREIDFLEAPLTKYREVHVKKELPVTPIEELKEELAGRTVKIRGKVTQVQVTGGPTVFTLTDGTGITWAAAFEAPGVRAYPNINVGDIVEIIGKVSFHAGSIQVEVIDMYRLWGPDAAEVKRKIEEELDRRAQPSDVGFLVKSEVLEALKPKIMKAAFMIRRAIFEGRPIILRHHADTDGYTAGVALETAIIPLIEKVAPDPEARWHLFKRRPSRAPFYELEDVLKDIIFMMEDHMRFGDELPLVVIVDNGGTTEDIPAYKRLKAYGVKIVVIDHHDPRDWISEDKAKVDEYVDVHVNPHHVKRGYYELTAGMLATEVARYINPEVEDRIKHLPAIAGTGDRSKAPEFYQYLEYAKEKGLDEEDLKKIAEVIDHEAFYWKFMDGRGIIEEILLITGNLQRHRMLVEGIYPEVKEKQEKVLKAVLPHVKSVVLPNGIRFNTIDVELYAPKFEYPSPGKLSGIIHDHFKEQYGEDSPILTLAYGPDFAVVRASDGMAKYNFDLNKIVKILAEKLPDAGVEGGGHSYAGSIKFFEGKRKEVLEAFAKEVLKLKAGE

T5: PfuHAN-D1 (Pyrococcus furiosus, UniProt Q8U3Q7 305-740)
T5 sequence: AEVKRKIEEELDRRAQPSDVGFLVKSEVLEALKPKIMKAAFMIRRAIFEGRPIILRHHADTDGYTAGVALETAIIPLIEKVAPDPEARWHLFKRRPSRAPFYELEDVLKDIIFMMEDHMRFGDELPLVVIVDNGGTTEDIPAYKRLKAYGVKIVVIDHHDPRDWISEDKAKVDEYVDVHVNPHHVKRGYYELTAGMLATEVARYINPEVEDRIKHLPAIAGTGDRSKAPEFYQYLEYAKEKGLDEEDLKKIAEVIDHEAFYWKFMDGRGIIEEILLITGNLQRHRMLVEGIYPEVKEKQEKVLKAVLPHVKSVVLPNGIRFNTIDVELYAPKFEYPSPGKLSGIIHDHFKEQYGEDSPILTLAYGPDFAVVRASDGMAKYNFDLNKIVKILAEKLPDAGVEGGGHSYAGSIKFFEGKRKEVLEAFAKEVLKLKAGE

T6: PfuHAN wt (Pyrococcus furiosus, UniProt Q8U3Q7 1-740)
T6 sequence: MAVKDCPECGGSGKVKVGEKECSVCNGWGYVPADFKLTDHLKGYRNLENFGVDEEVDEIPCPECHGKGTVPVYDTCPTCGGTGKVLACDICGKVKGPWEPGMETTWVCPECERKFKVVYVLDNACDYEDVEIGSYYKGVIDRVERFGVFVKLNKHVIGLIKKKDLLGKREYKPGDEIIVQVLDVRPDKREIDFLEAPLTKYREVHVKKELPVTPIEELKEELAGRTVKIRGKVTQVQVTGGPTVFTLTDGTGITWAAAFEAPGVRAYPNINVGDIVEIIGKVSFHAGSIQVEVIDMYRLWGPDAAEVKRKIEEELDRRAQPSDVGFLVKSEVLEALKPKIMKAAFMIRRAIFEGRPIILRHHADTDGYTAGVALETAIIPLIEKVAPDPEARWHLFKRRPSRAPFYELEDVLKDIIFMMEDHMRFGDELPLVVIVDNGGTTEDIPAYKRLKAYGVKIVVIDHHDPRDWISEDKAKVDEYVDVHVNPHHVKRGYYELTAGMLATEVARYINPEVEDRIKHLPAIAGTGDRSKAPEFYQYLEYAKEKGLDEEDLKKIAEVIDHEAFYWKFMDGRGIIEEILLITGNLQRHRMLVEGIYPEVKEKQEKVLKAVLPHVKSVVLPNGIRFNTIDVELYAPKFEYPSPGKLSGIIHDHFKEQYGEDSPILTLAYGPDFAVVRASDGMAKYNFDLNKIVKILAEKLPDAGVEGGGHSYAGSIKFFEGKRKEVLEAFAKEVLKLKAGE


Assays:
[1] = biological target: PfuHAN_DND E562A (Pyrococcus furiosus); test: SEC
PfuHAN-D4 = biological target: T1, PfuHAN-D4; test: EMSA
PfuHAN-D2 = biological target: T2, PfuHAN-D2; test: EMSA
PfuHAN-D3 = biological target: T3, PfuHAN-D3; test: EMSA
PfuHAN-D5 = biological target: T4, PfuHAN-D5; test: EMSA
PfuHAN-D1 = biological target: T5, PfuHAN-D1; test: EMSA
PfuHAN wt = biological target: T6, PfuHAN wt; test: MST

| Molecule | stoichiometry N [1] | binding result (PfuHAN-D4) | binding result (PfuHAN-D2) | binding result (PfuHAN-D3) | binding result (PfuHAN-D5) | binding result (PfuHAN-D1) | binding result (PfuHAN wt) |
| --- | --- | --- | --- | --- | --- | --- | --- |
| PfuHAN_DND E562A (domain or fragment) | 3 | – | – | – | – | – | – |
| AGGCTGCGGTCGAGTTGACAGCACTGCACGCATTACTGAGCT (ssDNA) [42-nt ssDNA] | – | no binding | no binding | no binding | no binding | no binding | no binding |
